Laboratory results as given in patent US20230372448A1, “THERAPEUTIC USE OF LONG-ACTING CONJUGATE OF TRIPLE AGONIST ACTING ON ALL OF GLUCAGON, GLP-1 AND GIP RECEPTORS AGAINST MULTIPLE SCLEROSIS” (HANMI PHARM. CO. ,LTD., priority 2020, published 2023).
Positions of bridges follow the written chain, without caps; N, C: chain ends. Non-standard residues stand in square brackets, D forms with d. No end group written: not given here. *: point of attachment. Acetyl(2-(4-imidazolyl)) = O=C(Cc1c[nH]cn1)*; Aib = CC(C)(N)C(=O)O

B1: triple agonist of SEQ ID NO: 36 (peptide)
peptide: H[Aib]QGTFTSDYSKYLCEKRQKEFVQWLLNGGPSSGAPPPSG
modifications: bridge 16-20
B2: triple agonist of SEQ ID NO: 59 (peptide)
peptide: {Acetyl(2-(4-imidazolyl))}-[Aib]QGTFTSDYSICMDEKHQKDFVNWLLNTK
modifications: bridge 15-19; not fully specified
B3: triple agonist of SEQ ID NO: 40 (peptide)
peptide: H[Aib]QGTFTSDKSKYLDERACQDFVQWLLDGGPSSGAPPPS
modifications: not fully specified
B4: triple agonist of SEQ ID NO: 60 (peptide)
peptide: {Acetyl(2-(4-imidazolyl))}-[Aib]QGTFTSDYSIAMDEKHCKDFVNWLLNTK
modifications: bridge 15-19; not fully specified
B5: triple agonist of SEQ ID NO: 51 (peptide)
peptide: H[Aib]QGTFTSDYSKYLDEKRQKEFVQWLLNTC
modifications: bridge 16-20; not fully specified
B6: triple agonist of SEQ ID NO: 38 (peptide)
peptide: {Acetyl(2-(4-imidazolyl))}-[Aib]QGTFTSDKSSYLDERAAQDFVQWLLDGGPSSGAPPPSS
modifications: not fully specified; also: ring from underlined residues, positions not shown
B7: triple agonist of SEQ ID NO: 41 (peptide)
peptide: H[Aib]QGTFTSDKSKYLDECAAQDFVQWLLDGGPSSGAPPPS
modifications: not fully specified
B8: triple agonist of SEQ ID NO: 37 (peptide)
peptide: H[Aib]QGTFTSDYSKYLDECRQKEFVQWLLNGGPSSGAPPPSG
modifications: bridge 16-20
B9: triple agonist of SEQ ID NO: 4 (peptide)
peptide: H[Aib]QGTFTSDVSSYLLGQQQKEFIAWLVKGC
modifications: not fully specified
B10: triple agonist of SEQ ID NO: 56 (peptide)
peptide: H[Aib]QGTFTSDYSKYLDEKRQKEFVNWLLAQC
modifications: bridge 16-20
B11: triple agonist of SEQ ID NO: 6 (peptide)
peptide: H[Aib]QGTFTSDVSSYLDGQAAKEFVAWLLKGC
modifications: not fully specified
B12: triple agonist of SEQ ID NO: 34 (peptide)
peptide: H[Aib]QGTFTSDYSKYLDEKRQKEFVNWLLAQKC
modifications: bridge 16-20; not fully specified
B13: triple agonist of SEQ ID NO: 52 (peptide)
peptide: H[Aib]QGTFTSDYSKYLDEKRQKEFVQWLLDTC
modifications: bridge 16-20; not fully specified
B14: triple agonist of SEQ ID NO: 42 (peptide)
peptide: Y[Aib]QGTFTSDYSKYLDEKRAKEFVQWLLDHHPSSGQPPPSC
modifications: bridge 16-20; not fully specified

Target: human GLP-1 receptor (human, UniProt P43220 24-463)
Assay: cell-based or functional assay

| Binder | In vitro activity (%) compared with native peptide: vs GLP-1 [%] |
| --- | --- |
| B1 | 37.4 |
| B2 | 40.3 |
| B3 | 75.2 |
| B4 | 106 |
| B5 | 14.4 |
| B6 | 2.3 |
| B7 | 34.3 |
| B8 | 236 |
| B9 | 8.5 |
| B10 | 57.9 |
| B11 | 17 |
| B12 | 19.1 |
| B13 | 44.1 |
| B14 | 33.9 |

Target: human GCG receptor (human, UniProt P47871 26-477)
Assay: cell-based or functional assay

Sequence of human GCG receptor (P47871 26-477): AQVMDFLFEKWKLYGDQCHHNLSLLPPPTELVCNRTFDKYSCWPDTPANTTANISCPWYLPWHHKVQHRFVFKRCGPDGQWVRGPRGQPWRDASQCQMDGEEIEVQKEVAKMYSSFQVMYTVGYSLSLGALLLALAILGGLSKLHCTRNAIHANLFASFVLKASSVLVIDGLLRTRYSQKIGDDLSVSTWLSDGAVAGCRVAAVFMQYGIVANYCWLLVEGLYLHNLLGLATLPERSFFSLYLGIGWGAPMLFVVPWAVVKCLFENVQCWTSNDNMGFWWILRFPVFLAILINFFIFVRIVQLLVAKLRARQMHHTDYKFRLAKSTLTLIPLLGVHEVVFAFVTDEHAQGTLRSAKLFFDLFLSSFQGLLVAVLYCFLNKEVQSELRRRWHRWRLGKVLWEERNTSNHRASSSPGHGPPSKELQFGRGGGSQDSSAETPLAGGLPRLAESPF

| Binder | In vitro activity (%) compared with native peptide: vs Glucagon [%] |
| --- | --- |
| B1 | 0.39 |
| B2 | < 0.1 |
| B3 | < 0.1 |
| B4 | < 0.1 |
| B5 | 2 |
| B7 | < 0.1 |
| B8 | 6.21 |
| B9 | < 0.1 |
| B10 | 4.9 |
| B11 | < 0.1 |
| B12 | 0.92 |
| B13 | 7.5 |
| B14 | 206 |

Target: T1, human GIP receptor (human, UniProt P48546 22-466)
T1 sequence (looked up): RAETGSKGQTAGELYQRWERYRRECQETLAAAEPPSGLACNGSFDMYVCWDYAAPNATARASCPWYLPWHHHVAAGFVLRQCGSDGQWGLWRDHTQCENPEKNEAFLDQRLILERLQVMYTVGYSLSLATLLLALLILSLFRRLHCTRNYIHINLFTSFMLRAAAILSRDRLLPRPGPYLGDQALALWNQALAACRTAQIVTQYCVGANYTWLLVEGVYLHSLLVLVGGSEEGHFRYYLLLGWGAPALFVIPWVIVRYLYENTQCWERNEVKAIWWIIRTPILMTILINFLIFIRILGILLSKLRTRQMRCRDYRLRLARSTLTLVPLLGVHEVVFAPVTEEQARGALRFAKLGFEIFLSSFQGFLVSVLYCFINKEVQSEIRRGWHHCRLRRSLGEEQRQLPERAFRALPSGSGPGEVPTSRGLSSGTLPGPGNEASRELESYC
Assay: cell-based or functional assay

| Binder | In vitro activity (%) compared with native peptide: vs GIP [%] |
| --- | --- |
| B1 | 0.2 |
| B2 | 4 |
| B3 | < 0.1 |
| B4 | 8.2 |
| B5 | 0.1 |
| B7 | < 0.1 |
| B8 | 2.2 |
| B9 | < 0.1 |
| B10 | 0.8 |
| B11 | < 0.1 |
| B12 | 0.6 |
| B13 | 0.3 |
| B14 | 7.8 |
